Laboratory results taken from patent US20240092941A1 (FRED HUTCHINSON CANCER CENTER, published 2024).

Biological target: T1, soluble ROR1 ectodomain (UniProt Q01973 30-406, limits assumed)
T1 construct: extracellular domain
Assay: method not stated in the legend of FIG. 1

T1 sequence (Q01973 30-406 limits assumed): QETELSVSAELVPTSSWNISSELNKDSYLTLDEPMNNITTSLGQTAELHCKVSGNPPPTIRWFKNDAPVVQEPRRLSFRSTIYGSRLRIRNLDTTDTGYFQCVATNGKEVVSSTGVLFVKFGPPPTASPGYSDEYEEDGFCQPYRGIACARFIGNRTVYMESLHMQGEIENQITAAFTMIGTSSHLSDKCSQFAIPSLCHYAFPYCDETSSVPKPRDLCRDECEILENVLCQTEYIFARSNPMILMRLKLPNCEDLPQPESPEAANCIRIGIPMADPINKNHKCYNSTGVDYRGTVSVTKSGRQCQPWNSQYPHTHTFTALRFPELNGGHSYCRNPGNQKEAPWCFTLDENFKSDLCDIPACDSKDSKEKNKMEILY

Row | Kd [nM] | Binder
1 | 2 | Nb11 WT (VHH) VHH: QVKLVQSGGGLVQAGGSLRLSCAASGSIFSSASMGWYRQAPGKPREQVASITRDGNTYYEDDVKGRFTISRDNARSTGYLQMNSLTPEDTGVYYCNVYQLGFYDKWGQGTQVIVSS
2 | 2 | Nb14 WT (VHH) VHH: QVKLVQSGGGLVQTGGSLRLSCAASEITFDMYSMGWYREAPGKARDAVASITNRGNTYYADSVKGRFTISRDNAKKTMYLQMNSLKPEDTAVYYCNVYRTGFSDYWGQGTQVTVSS
